According to the supplement of paper PMC7125110:
± gives the standard error. This sample holds only a part of the variants without activity.

B1: glmS ribozyme (parent)
chain: AUAAAAGCGCCAGAACUACAGAAAUGUAGUUGACGAGGAGGAGGUUUAUCGAAUUUUCGGCGGAUGCCUCCAAA

Tests used:
Conditions in all cases: with glucosamine-6-phosphate
[1] = variants of: B1; assay: self-cleavage kobs at 40 uM GlcN6P; higher = faster cleavage; RNA array
Summary of the method: (§1)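 Barcoded ribozyme variants on sequenced MiSeq chips were transcribed in situ by E. coli RNA polymerase and followed at 37 °C through a hybridised Cy3 probe. Glucosamine-6-phosphate at 40 μM to 10 mM in HEPES/KCl/Mg(OAc)2 buffer was flowed in, and tiles were imaged over ~14 h. Signals were normalised to baseline and to non-cleaving reference variants, and per-tile medians were fit to one- or two-exponential decays to give kobs. Weighted Michaelis–Menten fits across concentrations gave kcat and KM.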

[2] = variants of: B1; assay: self-cleavage kobs at 10000 uM GlcN6P; higher = faster cleavage; RNA array
Summary of the method: as §1

[3] = variants of: B1; assay: self-cleavage kobs at 640 uM GlcN6P; higher = faster cleavage; RNA array
Summary of the method: as §1

[4] = variants of: B1; assay: self-cleavage kobs at 160 uM GlcN6P; higher = faster cleavage; RNA array
Summary of the method: as §1

[5] = variants of: B1; assay: self-cleavage kobs at 2500 uM GlcN6P; higher = faster cleavage; RNA array
Summary of the method: as §1

G7U U30G C50G C61A
self-cleavage kobs at 40 uM GlcN6P [1]: 0.000244 ± 8.9e-05 s⁻¹ | self-cleavage kobs at 10000 uM GlcN6P [2]: 0.000292 ± 7.4e-05 s⁻¹

G37A A39U A42G C50U
self-cleavage kobs at 40 uM GlcN6P [1]: < 1e-05 s⁻¹ | self-cleavage kobs at 640 uM GlcN6P [3]: < 1e-05 s⁻¹ | self-cleavage kobs at 10000 uM GlcN6P [2]: < 1e-05 s⁻¹

C10U G41A
self-cleavage kobs at 40 uM GlcN6P [1]: < 1e-05 s⁻¹ | self-cleavage kobs at 160 uM GlcN6P [4]: < 1e-05 s⁻¹ | self-cleavage kobs at 640 uM GlcN6P [3]: < 1e-05 s⁻¹ | self-cleavage kobs at 2500 uM GlcN6P [5]: < 1e-05 s⁻¹ | self-cleavage kobs at 10000 uM GlcN6P [2]: < 1e-05 s⁻¹

A6C C16A G29A G63C C67A
self-cleavage kobs at 40 uM GlcN6P [1]: < 1e-05 s⁻¹

G29U A42G U56C G63A
self-cleavage kobs at 40 uM GlcN6P [1]: < 1e-05 s⁻¹ | self-cleavage kobs at 10000 uM GlcN6P [2]: < 1e-05 s⁻¹

U31G U49G C50G
self-cleavage kobs at 40 uM GlcN6P [1]: < 1e-05 s⁻¹

U30C G40A A52G U55C C61G
self-cleavage kobs at 40 uM GlcN6P [1]: < 1e-05 s⁻¹ | self-cleavage kobs at 10000 uM GlcN6P [2]: < 1e-05 s⁻¹

C10G G32C U57A
self-cleavage kobs at 40 uM GlcN6P [1]: < 1e-05 s⁻¹

A33U G40C C71A
self-cleavage kobs at 40 uM GlcN6P [1]: < 1e-05 s⁻¹

A14G A39G
self-cleavage kobs at 40 uM GlcN6P [1]: 0.004 ± 0.00057 s⁻¹ | self-cleavage kobs at 160 uM GlcN6P [4]: 0.00304 ± 0.00096 s⁻¹ | self-cleavage kobs at 640 uM GlcN6P [3]: 0.0236 ± 0.0054 s⁻¹ | self-cleavage kobs at 10000 uM GlcN6P [2]: 0.138 ± 0.052 s⁻¹

A33G U65C C71A
self-cleavage kobs at 40 uM GlcN6P [1]: < 1e-05 s⁻¹ | self-cleavage kobs at 640 uM GlcN6P [3]: < 1e-05 s⁻¹

C8A G43A
self-cleavage kobs at 40 uM GlcN6P [1]: < 1e-05 s⁻¹ | self-cleavage kobs at 160 uM GlcN6P [4]: < 1e-05 s⁻¹ | self-cleavage kobs at 640 uM GlcN6P [3]: < 1e-05 s⁻¹ | self-cleavage kobs at 2500 uM GlcN6P [5]: < 1e-05 s⁻¹

A14C G43U
self-cleavage kobs at 40 uM GlcN6P [1]: < 1e-05 s⁻¹ | self-cleavage kobs at 160 uM GlcN6P [4]: < 1e-05 s⁻¹ | self-cleavage kobs at 640 uM GlcN6P [3]: < 1e-05 s⁻¹ | self-cleavage kobs at 2500 uM GlcN6P [5]: < 1e-05 s⁻¹

G7A A39G C58G
self-cleavage kobs at 40 uM GlcN6P [1]: < 1e-05 s⁻¹

C8U C10A C50A
self-cleavage kobs at 40 uM GlcN6P [1]: < 1e-05 s⁻¹

A1U U2G A3G A5U A6C G7C C8A G9U C10A C11A
self-cleavage kobs at 40 uM GlcN6P [1]: < 1e-05 s⁻¹ | self-cleavage kobs at 160 uM GlcN6P [4]: < 1e-05 s⁻¹ | self-cleavage kobs at 640 uM GlcN6P [3]: < 1e-05 s⁻¹ | self-cleavage kobs at 2500 uM GlcN6P [5]: < 1e-05 s⁻¹ | self-cleavage kobs at 10000 uM GlcN6P [2]: < 1e-05 s⁻¹

A42U C68A
self-cleavage kobs at 40 uM GlcN6P [1]: < 1e-05 s⁻¹ | self-cleavage kobs at 160 uM GlcN6P [4]: < 1e-05 s⁻¹ | self-cleavage kobs at 640 uM GlcN6P [3]: < 1e-05 s⁻¹ | self-cleavage kobs at 10000 uM GlcN6P [2]: < 1e-05 s⁻¹

A15C G37A U57G C67G
self-cleavage kobs at 40 uM GlcN6P [1]: < 1e-05 s⁻¹ | self-cleavage kobs at 10000 uM GlcN6P [2]: < 1e-05 s⁻¹

G7A A39C G51U
self-cleavage kobs at 40 uM GlcN6P [1]: < 1e-05 s⁻¹ | self-cleavage kobs at 160 uM GlcN6P [4]: < 1e-05 s⁻¹ | self-cleavage kobs at 2500 uM GlcN6P [5]: < 1e-05 s⁻¹

G38U C61U U69C C71G
self-cleavage kobs at 40 uM GlcN6P [1]: 6.15e-05 ± 2.4e-05 s⁻¹ | self-cleavage kobs at 10000 uM GlcN6P [2]: 4.2e-05 ± 1.5e-05 s⁻¹

G9U C11U C68U
self-cleavage kobs at 40 uM GlcN6P [1]: < 1e-05 s⁻¹

G7U G38A
self-cleavage kobs at 40 uM GlcN6P [1]: < 1e-05 s⁻¹ | self-cleavage kobs at 160 uM GlcN6P [4]: < 1e-05 s⁻¹ | self-cleavage kobs at 10000 uM GlcN6P [2]: < 1e-05 s⁻¹

C16A A39U G51U
self-cleavage kobs at 40 uM GlcN6P [1]: < 1e-05 s⁻¹

A36U C67U C70G
self-cleavage kobs at 40 uM GlcN6P [1]: 7.02e-05 ± 2.8e-05 s⁻¹ | self-cleavage kobs at 10000 uM GlcN6P [2]: 3.53e-05 ± 1.7e-05 s⁻¹

G35C C68A C71U
self-cleavage kobs at 40 uM GlcN6P [1]: < 1e-05 s⁻¹ | self-cleavage kobs at 640 uM GlcN6P [3]: < 1e-05 s⁻¹ | self-cleavage kobs at 2500 uM GlcN6P [5]: < 1e-05 s⁻¹ | self-cleavage kobs at 10000 uM GlcN6P [2]: < 1e-05 s⁻¹

C8U A12C G40A U45G G60A G66U
self-cleavage kobs at 40 uM GlcN6P [1]: < 1e-05 s⁻¹

G40A G62U
self-cleavage kobs at 40 uM GlcN6P [1]: < 1e-05 s⁻¹ | self-cleavage kobs at 160 uM GlcN6P [4]: < 1e-05 s⁻¹ | self-cleavage kobs at 640 uM GlcN6P [3]: < 1e-05 s⁻¹ | self-cleavage kobs at 10000 uM GlcN6P [2]: < 1e-05 s⁻¹

A6C G13A A52C
self-cleavage kobs at 40 uM GlcN6P [1]: < 1e-05 s⁻¹ | self-cleavage kobs at 2500 uM GlcN6P [5]: < 1e-05 s⁻¹ | self-cleavage kobs at 10000 uM GlcN6P [2]: < 1e-05 s⁻¹

C16G G40U C58G
self-cleavage kobs at 40 uM GlcN6P [1]: < 1e-05 s⁻¹ | self-cleavage kobs at 2500 uM GlcN6P [5]: < 1e-05 s⁻¹

C11A U49C
self-cleavage kobs at 40 uM GlcN6P [1]: < 1e-05 s⁻¹ | self-cleavage kobs at 160 uM GlcN6P [4]: < 1e-05 s⁻¹ | self-cleavage kobs at 2500 uM GlcN6P [5]: < 1e-05 s⁻¹ | self-cleavage kobs at 10000 uM GlcN6P [2]: < 1e-05 s⁻¹

A14U U69C
self-cleavage kobs at 40 uM GlcN6P [1]: 0.000126 ± 2.3e-05 s⁻¹ | self-cleavage kobs at 160 uM GlcN6P [4]: 0.000147 ± 2.2e-05 s⁻¹ | self-cleavage kobs at 640 uM GlcN6P [3]: 0.000362 ± 4.8e-05 s⁻¹ | self-cleavage kobs at 2500 uM GlcN6P [5]: 0.000501 ± 0.00015 s⁻¹ | self-cleavage kobs at 10000 uM GlcN6P [2]: 0.00132 ± 0.00026 s⁻¹

A6C G9C C11U C34G G38A U55C G59A C67U
self-cleavage kobs at 40 uM GlcN6P [1]: < 1e-05 s⁻¹ | self-cleavage kobs at 10000 uM GlcN6P [2]: < 1e-05 s⁻¹

G35C U49A
self-cleavage kobs at 40 uM GlcN6P [1]: < 1e-05 s⁻¹ | self-cleavage kobs at 640 uM GlcN6P [3]: < 1e-05 s⁻¹ | self-cleavage kobs at 2500 uM GlcN6P [5]: < 1e-05 s⁻¹

C11U G13A A14C A52C G66A
self-cleavage kobs at 40 uM GlcN6P [1]: < 1e-05 s⁻¹ | self-cleavage kobs at 10000 uM GlcN6P [2]: < 1e-05 s⁻¹

G32C G43C G51U
self-cleavage kobs at 40 uM GlcN6P [1]: < 1e-05 s⁻¹ | self-cleavage kobs at 10000 uM GlcN6P [2]: < 1e-05 s⁻¹

A6U C8G A36G U45A A64U
self-cleavage kobs at 40 uM GlcN6P [1]: < 1e-05 s⁻¹ | self-cleavage kobs at 640 uM GlcN6P [3]: < 1e-05 s⁻¹

A14G A52G
self-cleavage kobs at 40 uM GlcN6P [1]: 9.65e-05 ± 1.7e-05 s⁻¹ | self-cleavage kobs at 160 uM GlcN6P [4]: 0.000152 ± 4e-05 s⁻¹ | self-cleavage kobs at 640 uM GlcN6P [3]: 0.00106 ± 0.00018 s⁻¹ | self-cleavage kobs at 2500 uM GlcN6P [5]: 0.00234 ± 0.00051 s⁻¹ | self-cleavage kobs at 10000 uM GlcN6P [2]: 0.00467 ± 0.001 s⁻¹

G29U G41A C71G
self-cleavage kobs at 40 uM GlcN6P [1]: < 1e-05 s⁻¹

G40A G63A
self-cleavage kobs at 40 uM GlcN6P [1]: < 1e-05 s⁻¹ | self-cleavage kobs at 2500 uM GlcN6P [5]: < 1e-05 s⁻¹ | self-cleavage kobs at 10000 uM GlcN6P [2]: < 1e-05 s⁻¹

G7U G35U G38U G59C
self-cleavage kobs at 40 uM GlcN6P [1]: < 1e-05 s⁻¹ | self-cleavage kobs at 10000 uM GlcN6P [2]: < 1e-05 s⁻¹

C8U G9A
self-cleavage kobs at 40 uM GlcN6P [1]: < 1e-05 s⁻¹ | self-cleavage kobs at 160 uM GlcN6P [4]: < 1e-05 s⁻¹ | self-cleavage kobs at 640 uM GlcN6P [3]: < 1e-05 s⁻¹ | self-cleavage kobs at 2500 uM GlcN6P [5]: < 1e-05 s⁻¹ | self-cleavage kobs at 10000 uM GlcN6P [2]: < 1e-05 s⁻¹

A6C A52U U54A U55C
self-cleavage kobs at 40 uM GlcN6P [1]: < 1e-05 s⁻¹ | self-cleavage kobs at 640 uM GlcN6P [3]: < 1e-05 s⁻¹ | self-cleavage kobs at 10000 uM GlcN6P [2]: < 1e-05 s⁻¹

C10U G60U C67U
self-cleavage kobs at 40 uM GlcN6P [1]: < 1e-05 s⁻¹ | self-cleavage kobs at 160 uM GlcN6P [4]: < 1e-05 s⁻¹ | self-cleavage kobs at 640 uM GlcN6P [3]: < 1e-05 s⁻¹ | self-cleavage kobs at 10000 uM GlcN6P [2]: < 1e-05 s⁻¹

U46A U49C
self-cleavage kobs at 40 uM GlcN6P [1]: < 1e-05 s⁻¹ | self-cleavage kobs at 160 uM GlcN6P [4]: < 1e-05 s⁻¹ | self-cleavage kobs at 640 uM GlcN6P [3]: < 1e-05 s⁻¹ | self-cleavage kobs at 2500 uM GlcN6P [5]: < 1e-05 s⁻¹ | self-cleavage kobs at 10000 uM GlcN6P [2]: < 1e-05 s⁻¹

A52U C61A
self-cleavage kobs at 40 uM GlcN6P [1]: < 1e-05 s⁻¹ | self-cleavage kobs at 10000 uM GlcN6P [2]: < 1e-05 s⁻¹

C50U U54A
self-cleavage kobs at 40 uM GlcN6P [1]: < 1e-05 s⁻¹ | self-cleavage kobs at 160 uM GlcN6P [4]: < 1e-05 s⁻¹ | self-cleavage kobs at 10000 uM GlcN6P [2]: 5.02e-05 ± 9.2e-06 s⁻¹

C11A G59C
self-cleavage kobs at 40 uM GlcN6P [1]: < 1e-05 s⁻¹ | self-cleavage kobs at 160 uM GlcN6P [4]: < 1e-05 s⁻¹ | self-cleavage kobs at 640 uM GlcN6P [3]: < 1e-05 s⁻¹

A52U A53G C61U
self-cleavage kobs at 40 uM GlcN6P [1]: < 1e-05 s⁻¹
